The values below come from publication PMC12146755.

The target of assay [1] is CD3ε (antigen of the surface plasmon resonance) (human) (UniProt P07766). Kind of assay: SPR; format and conditions not given in the main text (SI Appendix, Fig. S1 D-F). For orientation: In SPR one partner is held on a chip, and binding of the other changes the refractive index at the surface.
Target sequence in this assay (P07766 23-207): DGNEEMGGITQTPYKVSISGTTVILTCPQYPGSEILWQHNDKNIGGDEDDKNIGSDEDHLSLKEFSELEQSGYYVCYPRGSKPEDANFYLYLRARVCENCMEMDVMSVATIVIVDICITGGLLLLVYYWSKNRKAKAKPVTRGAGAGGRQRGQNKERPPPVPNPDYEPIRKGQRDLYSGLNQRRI
Assay [2] has the same target. Kind of assay: SPR. To be noted: bispecific antibody.
Target sequence in this assay (P07766 23-126): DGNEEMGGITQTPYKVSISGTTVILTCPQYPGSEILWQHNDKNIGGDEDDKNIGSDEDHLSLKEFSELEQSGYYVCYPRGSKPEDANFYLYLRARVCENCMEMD
For assay [3], the target named is Her2 (antigen of the surface plasmon resonance) (human) (UniProt P04626). Kind of assay: SPR. The note with it: bispecific antibody.

Where only a bound is given, the exact number is not on record here.

“Bispecific T cell engager Format A (anti-Her2 x anti-CD3ε, IgG1-based) (bispecific antibody)”: the Kd (in general, the constant that tells how readily two partners part at equilibrium) in assay [1] is less than 10 nM.

“Bispecific T cell engager Format A (anti-Her2 x anti-CD3ε, IgG1-based) (from UniProt P01857)”: the Kd in assay [2] was determined as 3.8 nM; in assay [3], 0.156 nM.

In turn, “Bispecific T cell engager Format B (anti-Her2 x anti-CD3ε, IgG1-based) (bispecific antibody)” returned a Kd in assay [1] of less than 10 nM.

Regarding “Bispecific T cell engager Format B (anti-Her2 x anti-CD3ε, IgG1-based) (from UniProt P01857)”, the Kd was found to be 4.2 nM in assay [2] and 0.249 nM in assay [3].

For the substance “Bispecific T cell engager Format C (anti-Her2 x anti-CD3ε, IgG1-based) (bispecific antibody)”, the Kd in assay [1] was less than 10 nM.

“Bispecific T cell engager Format C (anti-Her2 x anti-CD3ε, IgG1-based) (from UniProt P01857)”: the Kd in assay [2] is 5.4 nM; in assay [3], 0.086 nM.
